{"source": "paper doi:10.1101/2020.12.16.421545v1", "substrate": "CCCC(=O)Oc1ccc([N+](=O)[O-])cc1", "test": "purified protein", "format": "biochemical, uncultured Pseudomonadota bacterium", "details": "36 nM enzyme, no added Co2+", "key": {"[1]": {"details": "without Triton X-100, sigmoidal (hysteresis)"}}, "data": [{"protein": "Ade1 (Amazonian Dark Earth Esterase 1) (uncultured Pseudomonadota bacterium) (protein) MLYAQVNGINLHYEIEGQGQPLLLIMGLGAPAAAWDPIFVQTLTKTHQVIIYDNRGTGLSDKPDMPYSIAMFASDAVGLLDALNIPRAHVFGVSMGGMIAQELAIHYPQRVASLILGCTTPGGKHAVPAPPESLKALEGRAGLTPEEAIREGWKLSFSEEFIHTHKAELEAHIPRLLAQLTPRFAYERHFQATMTLRVFKQLKEIQAPTLVATGRDDMLIPAVNSEILAREIPGAELAIFESAGHGFVTSAREPFLKVLKEFLARQSV", "values": [{"measurement": "K0.5", "setting": "with Triton X-100", "result": "254 ± 25", "unit": "µM"}, {"measurement": "kcat", "setting": "with Triton X-100", "result": "47 ± 1", "unit": "s⁻¹"}, {"measurement": "K0.5", "setting": "[1]", "result": "392 ± 29", "unit": "µM"}, {"measurement": "kcat", "setting": "[1]", "result": "94 ± 3", "unit": "s⁻¹"}]}]}
